Data as given in paper PMC9163039.

Target: mRuby2-Tau (human Tau full length) (human) (UniProt P10636)
Assay: FRET or BRET; FLIM-FRET (clover donor lifetime) in living SH-SY5Y cells after hyperosmotic stress (sucrose); only pixels belonging to BAG2 condensates fitted

UniProt P10636, sequence (P10636 2-758): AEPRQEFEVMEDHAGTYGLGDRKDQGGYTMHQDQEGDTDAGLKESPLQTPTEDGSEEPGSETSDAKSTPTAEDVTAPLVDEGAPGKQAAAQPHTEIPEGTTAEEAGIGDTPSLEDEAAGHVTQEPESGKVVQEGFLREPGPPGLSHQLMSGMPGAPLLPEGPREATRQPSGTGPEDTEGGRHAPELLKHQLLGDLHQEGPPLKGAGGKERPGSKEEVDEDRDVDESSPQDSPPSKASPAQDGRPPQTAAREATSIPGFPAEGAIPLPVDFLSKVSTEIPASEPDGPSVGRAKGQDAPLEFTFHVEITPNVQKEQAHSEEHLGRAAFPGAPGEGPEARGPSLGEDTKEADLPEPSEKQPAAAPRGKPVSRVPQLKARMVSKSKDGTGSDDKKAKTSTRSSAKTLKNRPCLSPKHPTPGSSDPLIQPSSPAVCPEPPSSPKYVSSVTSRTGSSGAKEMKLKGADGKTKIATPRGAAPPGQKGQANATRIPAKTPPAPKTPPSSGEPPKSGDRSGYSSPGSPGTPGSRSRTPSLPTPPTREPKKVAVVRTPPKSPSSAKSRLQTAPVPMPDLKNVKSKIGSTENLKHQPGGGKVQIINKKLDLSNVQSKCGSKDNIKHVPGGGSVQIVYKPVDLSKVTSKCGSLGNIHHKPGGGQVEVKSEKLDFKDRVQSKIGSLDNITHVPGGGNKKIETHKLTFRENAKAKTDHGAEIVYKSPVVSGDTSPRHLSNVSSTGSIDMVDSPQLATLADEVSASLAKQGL

“mClover2-BAG2 (Bcl2-associated athanogene 2, full length) (from UniProt O95816 1-211) (natural protein)” showed a fluorescence lifetime of the donor (FLIM-FRET), pixels of BAG2 condensates after stress of 2.8 ns.
